Results on 18 molecules are retold here after patent US20220089698A1.

Common to all, as to experiment: cell-based or functional assay
The target in test [1] is HIV-1 envelope glycoprotein (gp120) of virus 7141 (HIV-1).
In test [2] the target is HIV-1 envelope glycoprotein (gp120) of virus 92US727 (HIV-1).
Test [3] has as its target HIV-1 envelope glycoprotein (gp120) of virus VS001 (HIV-1).

B1: 3.1.9-1 (antibody, human IgG1, kappa, V domains shown)
VH: QVQLLQSGAAVTKPGASVRVSCEASGYNIRDYFIHWWRQAPGQGLQWVGWINPKTGQPNNPRQFQGRVSLTRHASWDFDTFSFYMDLKALRSDDTAVYFCARQRSDYWDFDVWGSGTQVTVSS
VL: DIQMTQSPSSLSARVGDTATITCQANGYLNWYQQRRGKAPKLLIYDGSKLERGVPARFSGRRWGQEYNLTINNLQPEDVATYFCQVYEFFGPGTRLDLKR
On to B1, for which the Neutralization IC50 in test [1] is 4.35 µg/mL; in test [2] it was 3.54 µg/mL; in test [3], 0.16 µg/mL.

B2: 3.1.7-1 (antibody, human IgG1, kappa, V domains shown)
VH: QVQLLQSGAAVTKPGASVRVSCEASGYNIRDYFIHWWRQAPGQGLQWVGWINPKTGQPNNPRQFQGRVSLTRHASWDFDTFSFYMDLKALRSDDTAVYFCARQRSDYWDFDVWGSGTQVTVSS
VL: DIQMTQSPSSLSARVGDRATITCQANGYLNWYQQRRGKAPKLLIYDGSKLERGVPARFSGSRWGQEYTLTISSLQPEDVATYFCQVYEFFGPGTRLDLKR
As for B2, the Neutralization IC50 in test [1] is 5.65 µg/mL; in test [2], > 50 µg/mL; in test [3], 0.3 µg/mL.

B3: 2.2.13-1 (antibody, human IgG1, kappa, V domains shown)
VH: QVHLSQSGAAVTKPGASVRVSCEASGYKIRDHFIHWWRQAPGQGLQWVGWINPKTGQPNNPRQFQGRVSLTRHASWDFDTFSFYMDLKAVRSDDTAIYFCARQRSDYWDFDVWGSGTQVTVSS
VL: DIQMTQSPSSLSARVGDRATITCQANGYLNWYQQRRGKAPKLLIYDGSKLERGVPARFSGSRWGQEYILTISSLQPEDVATYFCQVYEFFGPGTRLDLKR
B3: the Neutralization IC50 was 3.8 µg/mL in test [1], > 50 µg/mL in test [2] and 1.48 µg/mL in test [3].

B4: 2.2.12-1 (antibody, human IgG1, kappa, V domains shown)
VH: QVHLSQSGAAVTKPGASVRVSCEASGYKIRDHFIHWWRQAPGQGLQWVGWINPKTGQPNNPRQFQGRVSLTRHASWDFDTFSFYMDLKAVRSDDTAIYFCARQRSDYWDFDVWGSGTQVTVSS
VL: DIQMTQSPSSLSARVGDTATITCQANGYLNWYQQRRGKAPKLLIYDGSKLERGVPARFSGRRWGQEYILTINNLQPEDVATYFCQVYEFFGPGTRLDLKR
B4: the values for the Neutralization IC50 in test [1], in test [2] and in test [3] were 7.08 µg/mL, > 50 µg/mL and 2.1 µg/mL, respectively.

B5: 2.2.7-1 (antibody, human IgG1, kappa, V domains shown)
VH: QVHLSQSGAAVTKPGASVRVSCEASGYKIRDHFIHWWRQAPGQGLQWVGWINPKTGQPNNPRQFQGRVSLTRHASWDFDTFSFYMDLKAVRSDDTAIYFCARQRSDYWDFDVWGSGTQVTVSS
VL: DIQMTQSPSSLSARVGDRATITCQANGYLNWYQQRRGKAPKLLIYDGSKLERGVPARFSGSRWGQEYTLTISSLQPEDVATYFCQVYEFFGPGTRLDLKR
Consider B5, for which the figures for the Neutralization IC50 in test [1], in test [2] and in test [3] were 1.58 µg/mL, > 50 µg/mL and 0.27 µg/mL, respectively.

B6: 1.1.117-1 (antibody, human IgG1, kappa, V domains shown)
VH: QVQLLQSGAAVTKPGASVRVSCEASGYNIRDYFIHWWRQAPGQGLQWVGWINPKTGQPNNPRQFQGRVSLTRHASWDFDTFSFYMDLKALRSDDTAVYFCARQRSDYWDFDVWGSGTQVTVSS
VL: DIQMTQSPSSLSASVGDTATITCQANGYLNWYQQRRGKAPKLLIYDGSKLERGVPSRFSGRRWGQEYILTINNLQPEDIATYFCQVYEFFGPGTRLDLKR
For B6, the Neutralization IC50 in test [1] was 16.9 µg/mL; in test [2], > 50 µg/mL; in test [3], 3.03 µg/mL.

B7: 1.1.118-1 (antibody, human IgG1, kappa, V domains shown)
VH: QVQLLQSGAAVTKPGASVRVSCEASGYNIRDYFIHWWRQAPGQGLQWVGWINPKTGQPNNPRQFQGRVSLTRHASWDFDTFSFYMDLKALRSDDTAVYFCARQRSDYWDFDVWGSGTQVTVSS
VL: DIQMTQSPSSLSASVGDRATITCQANGYLNWYQQRRGKAPKLLIYDGSKLERGVPSRFSGSRWGQEYILTISSLQPEDIATYFCQVYEFFGPGTRLDLKR
On to B7, for which the figures for the Neutralization IC50 in test [1], in test [2] and in test [3] were 20.2 µg/mL, > 50 µg/mL and 2.4 µg/mL, respectively.

B8: 3.1.12-1 (antibody, human IgG1, kappa, V domains shown)
VH: QVQLLQSGAAVTKPGASVRVSCEASGYNIRDYFIHWWRQAPGQGLQWVGWINPKTGQPNNPRQFQGRVSLTRHASWDFDTFSFYMDLKALRSDDTAVYFCARQRSDYWDFDVWGSGTQVTVSS
VL: DIQMTQSPSSLSARVGDTATITCQANGYLNWYQQRRGKAPKLLIYDGSKLERGVPARFSGRRWGQEYILTINNLQPEDVATYFCQVYEFFGPGTRLDLKR
Consider B8, for which the Neutralization IC50 in test [1] is 24.5 µg/mL; in test [2] it was > 41 µg/mL; in test [3] it was 2.41 µg/mL.

B9: 2.2.9-1 (antibody, human IgG1, kappa, V domains shown)
VH: QVHLSQSGAAVTKPGASVRVSCEASGYKIRDHFIHWWRQAPGQGLQWVGWINPKTGQPNNPRQFQGRVSLTRHASWDFDTFSFYMDLKAVRSDDTAIYFCARQRSDYWDFDVWGSGTQVTVSS
VL: DIQMTQSPSSLSARVGDTATITCQANGYLNWYQQRRGKAPKLLIYDGSKLERGVPARFSGRRWGQEYNLTINNLQPEDVATYFCQVYEFFGPGTRLDLKR
Consider B9, for which the Neutralization IC50 is 1.75 µg/mL in test [1], 13.1 µg/mL in test [2] and 0.15 µg/mL in test [3].

B10: 1.1.119-1 (antibody, human IgG1, kappa, V domains shown)
VH: QVQLLQSGAAVTKPGASVRVSCEASGYNIRDYFIHWWRQAPGQGLQWVGWINPKTGQPNNPRQFQGRVSLTRHASWDFDTFSFYMDLKALRSDDTAVYFCARQRSDYWDFDVWGSGTQVTVSS
VL: DIQMTQSPSSLSASVGDRATITCQANGYLNWYQQRRGKAPKLLIYDGSKLERGVPSRFSGSRWGQEYTLTISSLQPEDIATYFCQVYEFFGPGTRLDLKR
As for B10, the Neutralization IC50 is 6.92 µg/mL in test [1], > 50 µg/mL in test [2] and 0.39 µg/mL in test [3].

B11: 2.3.9-1 (antibody, human IgG1, kappa, V domains shown)
VH: QVHLSQSGAAVTKPGASVRVSCEASGYNIRDYFIHWWRQAPGQGLQWVGWINPKTGQPNNPRQFQGRVSLTRHASWDFDTFSFYMDLKAVRSDDTAIYFCARQRSDYWDFDVWGSGTQVTVSS
VL: DIQMTQSPSSLSARVGDTATITCQANGYLNWYQQRRGKAPKLLIYDGSKLERGVPARFSGRRWGQEYNLTINNLQPEDVATYFCQVYEFFGPGTRLDLKR
For the molecule B11, the Neutralization IC50 in test [1] was determined as 2.56 µg/mL; in test [2] it was 11.1 µg/mL; in test [3], 0.22 µg/mL.

B12: 2.3.13-1 (antibody, human IgG1, kappa, V domains shown)
VH: QVHLSQSGAAVTKPGASVRVSCEASGYNIRDYFIHWWRQAPGQGLQWVGWINPKTGQPNNPRQFQGRVSLTRHASWDFDTFSFYMDLKAVRSDDTAIYFCARQRSDYWDFDVWGSGTQVTVSS
VL: DIQMTQSPSSLSARVGDRATITCQANGYLNWYQQRRGKAPKLLIYDGSKLERGVPARFSGSRWGQEYILTISSLQPEDVATYFCQVYEFFGPGTRLDLKR
Regarding B12, the Neutralization IC50 in test [1] was 15.5 µg/mL; in test [2], > 38 µg/mL; in test [3], 1.5 µg/mL.

B13: 2.3.12-1 (antibody, human IgG1, kappa, V domains shown)
VH: QVHLSQSGAAVTKPGASVRVSCEASGYNIRDYFIHWWRQAPGQGLQWVGWINPKTGQPNNPRQFQGRVSLTRHASWDFDTFSFYMDLKAVRSDDTAIYFCARQRSDYWDFDVWGSGTQVTVSS
VL: DIQMTQSPSSLSARVGDTATITCQANGYLNWYQQRRGKAPKLLIYDGSKLERGVPARFSGRRWGQEYILTINNLQPEDVATYFCQVYEFFGPGTRLDLKR
For the molecule B13, the Neutralization IC50 is 23.8 µg/mL in test [1], > 50 µg/mL in test [2] and 1.92 µg/mL in test [3].

B14: 2.3.15-1 (antibody, human IgG1, kappa, V domains shown)
VH: QVHLSQSGAAVTKPGASVRVSCEASGYNIRDYFIHWWRQAPGQGLQWVGWINPKTGQPNNPRQFQGRVSLTRHASWDFDTFSFYMDLKAVRSDDTAIYFCARQRSDYWDFDVWGSGTQVTVSS
VL: DIQMTQSPSSLSARVGDTATITCQANGYLNWYQQRRGKAPKLLIYDGSKLERGVPARFSGRRWGQEYTLTINNLQPEDVATYFCQVYEFFGPGTRLDLKR
Turning to B14, the Neutralization IC50 in test [1] is 5.93 µg/mL; in test [2], > 50 µg/mL; in test [3], 0.85 µg/mL.

B15: 3.1.15-1 (antibody, human IgG1, kappa, V domains shown)
VH: QVQLLQSGAAVTKPGASVRVSCEASGYNIRDYFIHWWRQAPGQGLQWVGWINPKTGQPNNPRQFQGRVSLTRHASWDFDTFSFYMDLKALRSDDTAVYFCARQRSDYWDFDVWGSGTQVTVSS
VL: DIQMTQSPSSLSARVGDTATITCQANGYLNWYQQRRGKAPKLLIYDGSKLERGVPARFSGRRWGQEYTLTINNLQPEDVATYFCQVYEFFGPGTRLDLKR
With B15, the Neutralization IC50 in test [1] is 9.1 µg/mL; in test [2] it was > 33 µg/mL; in test [3], 0.49 µg/mL.

B16: 3.1.13-1 (antibody, human IgG1, kappa, V domains shown)
VH: QVQLLQSGAAVTKPGASVRVSCEASGYNIRDYFIHWWRQAPGQGLQWVGWINPKTGQPNNPRQFQGRVSLTRHASWDFDTFSFYMDLKALRSDDTAVYFCARQRSDYWDFDVWGSGTQVTVSS
VL: DIQMTQSPSSLSARVGDRATITCQANGYLNWYQQRRGKAPKLLIYDGSKLERGVPARFSGSRWGQEYILTISSLQPEDVATYFCQVYEFFGPGTRLDLKR
Consider B16, for which the Neutralization IC50 is 13.2 µg/mL in test [1], > 21 µg/mL in test [2] and 0.56 µg/mL in test [3].

B17: 2.2.15-1 (antibody, human IgG1, kappa, V domains shown)
VH: QVHLSQSGAAVTKPGASVRVSCEASGYKIRDHFIHWWRQAPGQGLQWVGWINPKTGQPNNPRQFQGRVSLTRHASWDFDTFSFYMDLKAVRSDDTAIYFCARQRSDYWDFDVWGSGTQVTVSS
VL: DIQMTQSPSSLSARVGDTATITCQANGYLNWYQQRRGKAPKLLIYDGSKLERGVPARFSGRRWGQEYTLTINNLQPEDVATYFCQVYEFFGPGTRLDLKR
As for B17, the Neutralization IC50 in test [1] was 1.99 µg/mL; in test [2], > 50 µg/mL; in test [3], 0.37 µg/mL.

B18: 1.1.104-1 (antibody, human IgG1, kappa, V domains shown)
VH: QVQLLQSGAAVTKPGASVRVSCEASGYNIRDYFIHWWRQAPGQGLQWVGWINPKTGQPNNPRQFQGRVSLTRHASWDFDTFSFYMDLKALRSDDTAVYFCARQRSDYWDFDVWGSGTQVTVSS
VL: DIQMTQSPSSLSASVGDTATITCQANGYLNWYQQRRGKAPKLLIYDGSKLERGVPSRFSGRRWGQEYTLTINNLQPEDIATYFCQVYEFFGPGTRLDLKR
Regarding B18, the figures for the Neutralization IC50 in test [1], in test [2] and in test [3] were 5.13 µg/mL, > 50 µg/mL and 0.45 µg/mL, respectively.
